{"source": "patent US20210063414A1", "about": "“METHODS FOR PREVENTING AND/OR TREATING BONE LOSS CONDITIONS BY MODULATING IRISIN” (Dana-Farber Cancer Institute, Inc., priority 2018, published 2021)", "molecules": {"B1": {"name": "irisin: secreted cleaved form of FNDC5; recombinant human/mouse irisin with C-terminal his tag produced in HEK293 cells (protein)", "chain": "DSPSAPVNVTVRHLKANSAVVSWDVLEDEVVIGFAISQQKKDVRMLRFIQEVNTTTRSCALWDLEEDTEYIVHVQAISIQGQSPASEPVLFKTPREAEKMASKNKDEVTMKE", "modifications": "left off: small tags and cut ends", "notes": "secreted cleaved form of FNDC5; recombinant human/mouse irisin with C-terminal his tag produced in HEK293 cells"}}, "key": {"integrin α5/β1": {"molecular_target": "T1, integrin α5/β1 (Homo sapiens, UniProt P05556+P08648)", "T1 construct": "expressed in transfected cells; host or cells: HEK293T", "T1 sequence (P08648 42-894 limits assumed)": "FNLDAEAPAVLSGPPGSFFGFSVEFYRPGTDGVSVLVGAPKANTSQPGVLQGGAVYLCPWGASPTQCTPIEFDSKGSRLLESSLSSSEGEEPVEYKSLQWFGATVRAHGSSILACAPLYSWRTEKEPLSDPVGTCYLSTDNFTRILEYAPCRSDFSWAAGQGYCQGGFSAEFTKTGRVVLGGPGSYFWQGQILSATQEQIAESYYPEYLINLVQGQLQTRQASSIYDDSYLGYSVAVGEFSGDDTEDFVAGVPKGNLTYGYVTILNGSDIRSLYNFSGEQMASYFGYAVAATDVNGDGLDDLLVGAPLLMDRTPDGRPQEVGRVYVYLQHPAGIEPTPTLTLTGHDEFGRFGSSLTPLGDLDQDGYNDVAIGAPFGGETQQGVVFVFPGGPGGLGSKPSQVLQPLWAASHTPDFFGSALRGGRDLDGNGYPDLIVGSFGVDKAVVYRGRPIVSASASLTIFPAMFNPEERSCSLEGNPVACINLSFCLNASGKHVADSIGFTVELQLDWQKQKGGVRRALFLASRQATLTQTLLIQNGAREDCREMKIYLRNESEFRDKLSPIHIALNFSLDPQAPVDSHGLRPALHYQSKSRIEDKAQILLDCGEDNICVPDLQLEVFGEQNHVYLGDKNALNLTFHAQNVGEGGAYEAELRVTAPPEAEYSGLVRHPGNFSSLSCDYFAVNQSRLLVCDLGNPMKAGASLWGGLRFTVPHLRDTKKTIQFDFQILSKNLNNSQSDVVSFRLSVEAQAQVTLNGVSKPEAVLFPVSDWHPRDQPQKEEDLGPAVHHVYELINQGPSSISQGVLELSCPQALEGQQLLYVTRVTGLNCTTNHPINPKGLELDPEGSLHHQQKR", "T1 sequence (P08648 895-1049 partner limits assumed)": "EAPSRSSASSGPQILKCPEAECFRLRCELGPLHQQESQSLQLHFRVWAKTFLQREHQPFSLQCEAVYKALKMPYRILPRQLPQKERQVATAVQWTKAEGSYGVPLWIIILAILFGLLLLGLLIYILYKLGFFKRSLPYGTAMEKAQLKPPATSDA", "T1 sequence (P05556 21-798)": "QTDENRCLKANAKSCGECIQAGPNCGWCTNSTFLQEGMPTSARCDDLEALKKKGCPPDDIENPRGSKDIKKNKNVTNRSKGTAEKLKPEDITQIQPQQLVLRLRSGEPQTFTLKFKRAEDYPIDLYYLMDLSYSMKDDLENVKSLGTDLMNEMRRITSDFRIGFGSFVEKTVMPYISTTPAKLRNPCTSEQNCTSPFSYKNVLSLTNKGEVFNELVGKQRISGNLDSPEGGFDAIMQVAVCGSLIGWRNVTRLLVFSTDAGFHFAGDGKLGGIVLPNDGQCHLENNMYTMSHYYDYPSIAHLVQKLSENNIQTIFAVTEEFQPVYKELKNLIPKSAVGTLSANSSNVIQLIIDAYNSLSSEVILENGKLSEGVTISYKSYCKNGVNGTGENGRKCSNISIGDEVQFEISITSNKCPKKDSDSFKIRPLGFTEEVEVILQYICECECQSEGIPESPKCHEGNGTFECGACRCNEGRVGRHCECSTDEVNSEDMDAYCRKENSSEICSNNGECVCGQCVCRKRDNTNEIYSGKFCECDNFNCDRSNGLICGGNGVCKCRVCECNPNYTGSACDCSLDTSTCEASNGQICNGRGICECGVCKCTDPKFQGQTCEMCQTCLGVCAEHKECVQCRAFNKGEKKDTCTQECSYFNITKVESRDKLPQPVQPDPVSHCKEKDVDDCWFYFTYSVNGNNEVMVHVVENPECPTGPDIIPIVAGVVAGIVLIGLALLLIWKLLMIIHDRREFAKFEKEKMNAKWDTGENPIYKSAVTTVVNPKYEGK", "assay": "FAK phosphorylation in HEK293T cells with forced expression of integrin α5/β1", "assay_type": "cell-based", "description": "100 nM irisin was incubated with 5 nM indicated his-tag integrins followed by immunoprecipitation using Ni-NTA agaroses. Precipitated integrins and co-precipitated irisin were analyzed by immunoblot analysis. […] HEK293T cells were seeded and incubated until 50% cell density. The cells were transfected with 0.1 μg plasmids of indicated integrins. After 48 hours, the cells were re-split to indicated dose of vitronectin-coated plates. Cells were incubated with culture medium for 3 hours. Cells were lysed to detect the indicated protein level using immunoblot analysis. FIG. 15C and FIG. 15D show the immunoblot data. Cells were treated and analyzed as FIG. 14B except using plasmids encoding integrin α5/β1 or integrin α11/β1 (FIG. 15C) integrin αV/β1(FIG. 15D).\nHEK293T cells were set up for experiments at 1×10^5 cells per well in 6 well plate. On day 2, cells were transiently transfected with the indicated plasmids with FuGENE® 6 reagent (Roche Applied Science) according to the manufacturer's protocol. […]\nCells were harvested in RIPA buffer containing protease-inhibitor cocktail and phosphataseinhibitor cocktail. […] Protein levels were analyzed via western blot using indicated antibody. […] Protein levels were analyzed using western blot against indicated antibody."}, "epididymal fat (eWAT)": {"tested_on": "epididymal fat (eWAT)", "assay": "Irisin injection in mice: thermogenic and creatine cycle gene mRNA in epididymal fat", "assay_type": "in vivo", "conditions": "irisin injections 6 days", "description": "Eight week old mice were injected with indicated dose of irisin or 1 mg/kg CL316243 for 6 days. Epididymal fats (eWAT) were collected and indicated genes mRNA level was analyzed by qPCR. GATM is the first and rate-limiting step of creatine synthesis (Sandell et al. (2003) Proc. Natl. Acad. Sci. U.S.A. 100:4622-4627).\nCertain materials and methods were used to generate the results described herein. For example, the data shown in FIG. 1A resulted from MLO-Y4 (an osteocyte-like cell line) cells treated with the indicated concentration of irisin and hydrogen peroxide for 4 hours. Cells were stained with Hoechst 33342 (ThermoFisher Scientific, catalog number H3570) and Eth-D1 (ThermoFisher Scientific, catalog number E1169) and analyzed to determine the percentage of cell death using ImageJ. […] Co-precipitated irisin was analyzed by immunoblot analysis against flag tag (Sigma Aldrich, catalog number A8592). The data shown in FIGS. 5A and 5B were generated from MLO-Y4 cells treated and analyzed as in the experiments used to generate the data shown in FIG. 2D, except that pre-treatment of 100 nM RGDS (FIG. 5A) or echistatin (R & D Systems Inc., catalog number 3202/100U) (FIG. 5B) for 10 minutes was performed before irisin treatment. […] Sclerostin mRNA level was analyzed by qPCR (FIG. 7A). […]"}}}
{"molecule": "B1", "values": [{"measurement": "phosphorylation of FAK upon irisin treatment", "setting": "integrin α5/β1", "result": "little phosphorylation of FAK above background"}, {"measurement": "expression of futile creatine cycle genes (GATM, CKMT2, CKB)", "setting": "epididymal fat (eWAT)", "result": "also increased expression"}, {"measurement": "mRNAs of classical thermogenic pathway genes (UCP1, DIO 2)", "setting": "epididymal fat (eWAT)", "result": "increased expression"}]}
